The target of this test is SARS-CoV-2 Spike RBD K417N/N501Y (SARS-CoV-2) (UniProt P0DTC2).

The term Kd denotes a measure of binding affinity in units of concentration. As a reminder, the koff is the rate constant with which the complex falls apart. A lower koff goes with a long-lived complex. The term kon denotes the second-order rate constant of association. Lower therefore signals slower complex formation. “ACE2(T27Y/H34A/H374N)-IgG1Fc (from UniProt Q9BYF1 18-615) (Fc fusion)”: the Kd stood at 0.447 nM, the koff was determined as 0.000334 s⁻¹ and the on-rate constant (kon) amounted to 747000 M⁻¹ s⁻¹.

On to “ACE2-Fc IgG Hybrid Protein (ACE2-IgG1Fc, wildtype) (Fc fusion)”, for which the Kd worked out at 7.6 nM, the koff turned out to be 0.00347 s⁻¹ and the kon was found to be 457000 M⁻¹ s⁻¹.

Source of the values: patent EP4335870A1.
